Data from patent US12257281B2, “Hydrophilic antibody-drug conjugates” (priority 2014, dated 2025).
Square brackets hold non-standard residues; d marks the D form. Peptide text beside a SMILES is read from it. * marks the point of attachment. Dolaproine = CO[C@@H]([C@@H]1CCCN1)[C@@H](C)C(=O)O; Hexanoyl(6-maleimido) = O=C1C=CC(=O)N1CCCCCC(=O)*; Dil = CC[C@H](C)[C@H](NC)[C@@H](CC(=O)O)OC; NMeV = CN[C@H](C(=O)O)C(C)C

Columns and labels:
[1] = Hydrophobic Interaction Chromatography (HIC) of 8-loaded ADCs; type: physicochemical; settings: for HIC RT (min) h1F6 8-loads: 8-loaded antibody drug conjugates with antibody h1F6, Table 2; for HIC retention time: ADCs containing the drug linkers as 8 loads, Table 1
Description: The hydrophilicity index is measured as the retention time of a conjugate to that of the corresponding unconjugated targeting agent (alone) under high performance liquid chromatography (HPLC) conditions, as further described herein. […] If a different hydrophobic interaction column and/or method is used, it can be calibrated using conjugates from Tables 2 as references to determine reference conjugate mobilities (elution times) on the selected column and/or method. The determined reference mobilities on the selected hydrophobic interaction column and/or method can then be used to calculate a hydrophilicity index of a test article (as would be determined following Example 3). For example, an auristatin T-Glu-Dpr-MA, an me-MMAF and an mc-vc-PABC-MMAE drug linkers can be used to form conjugates to use as references. In another example, an auristatin T-Glu-Dpr-MA-h1F6 ADC, an h1F6-mc-MMAF and an h1F6-mc-vc-PABC-MMAE ADC can be used as references.
Analysis of the ADCs was performed using Hydrophobic Interaction Chromatography (HIC). HIC is performed by running a linear gradient from 0-100% Mobile Phase B (MPB) where Mobile Phase A (MPA) consists of 1.5 M ammonium sulfate, 25 mM potassium phosphate, pH 7.0, and MPB consists of 75% 25 mM potassium phosphate, pH 7.0, 25% isopropanol. Separation was achieved using a Tosoh t-Butyl column (TSK-Gel Butyl-NPR 4.6×35 mm, PN: 14947) heated to 25° C. Test articles were prepared by diluting 70 μg of ADC into MPA such that the total salt concentration is greater than or equal to 1.0 M ammonium sulfate at a total volume of 100 μL. Samples were injected at 90 μL and eluted using a 12 minute gradient. Monitoring at λ=280 nm.

786-O tumors = assay: Single dose mouse xenograft studies, h1F6 ADCs; type: in vivo; settings: FIG. 6
Source text: 786-O cells were obtained from American Type Culture Collection (ATCC, Manassas, VA) and propagated in culture conditions recommended by ATCC. To establish 786-O tumors, 5×10^6 cells were implanted into the right flank of athymic nu/nu female donor mice (Harlan, Indianapolis, IN). When donor tumors were approximately 500 mm^3, mice were euthanized and tumors were aseptically excised and ˜0.5×0.5 mm fragments were loaded into a sterilized 13-gauge trocar for implantation into nu/nu mice. When tumors reached ˜100 mm^3, mice were randomly allocated to treatment groups.
Experimental groups were treated via intraperitoneal injection with compounds at the dose and schedule indicated or alternatively left untreated. Tumors were measured periodically and volumes were calculated using the formula V=((L×W^2)/2). Animals were euthanized when tumors reached the volume of 1000 mm^3 or at the end of the study, whichever came first.
Tumor quadrupling times were chosen as time to endpoint (TTE), which was determined by using the non-liner regression analysis for exponential growth of each individual tumor growth data sets from each experimental animal. The median tumor quadrupling time was calculated based on the tumor volume at the beginning of treatment.
Statistical analysis was conducted using Prism (GraphPad) software for Windows. […]

Molecule	HIC RT (min) h1F6 8-loads [1] [min]	HIC retention time [1] [min]	activity of 8-loaded versus 4-loaded ADC (786-O tumors)
CC[C@H](C)[C@@H]([C@@H](CC(=O)N1CCC[C@H]1[C@H](OC)[C@@H](C)C(=O)N[C@@H](Cc1ccccc1)C(=O)O)OC)N(C)C(=O)[C@@H](NC(=O)[C@H](C(C)C)N(C)C(=O)CCCCCN1C(=O)C=CC1=O)C(C)C [mc-MMAF, maleimidocaproyl MMAF] ({Hexanoyl(6-maleimido)}-[NMeV]V[Dil][Dolaproine]F-OH)	7.0	7.0	–
maleimidocaproyl-valine-citrulline-p-aminobenzyl-carbamoyl MMAE [mc-vc-PABC-MMAE]	9.8	9.8	–
maleimidocaproyl-valine-citrulline-p-aminobenzyl-carbamoyl MMAF [mc-vc-PABC-MMAF]	8.2	8.2	–
h1F6-me-vc-PABC-MMAF (conjugate, chains of the INN, looked up, me-vc-PABC-MMAF drug conjugate) VH: QVQLVQSGAEVKKPGASVKVSCKASGYTFTNYGMNWVRQAPGQGLKWMGWINTYTGEPTYADAFKGRVTMTRDTSISTAYMELSRLRSDDTAVYYCARDYGDYGMDYWGQGTTVTVSS VL: DIVMTQSPDSLAVSLGERATINCRASKSVSTSGYSFMHWYQQKPGQPPKLLIYLASNLESGVPDRFSGSGSGTDFTLTISSLQAEDVAVYYCQHSREVPWTFGQGTKVEIK	–	–	4-loaded ADC gave better activity than the 8-loaded ADC
